Patent US20180244795A1

Columns and labels:
[1] = molecular target: hCD37-LEL (Large Extracellular Loop; amino acids 107 to 242 of human CD37 with a 6xHis-tag) (human); experiment: ELISA, native hCD37-LEL coated on the plate, antibody at 5 µg/mL
[2] = molecular target: hCD37-LEL (Large Extracellular Loop; amino acids 107 to 242 of human CD37 with a 6xHis-tag) (human); experiment: as above; remark: listed apart in the source
[3] = molecular target: hCD37-LEL (Large Extracellular Loop; amino acids 107 to 242 of human CD37 with a 6xHis-tag) (human); experiment: ELISA, native hCD37-LEL coated on the plate, antibody at 10 µg/mL
[4] = molecular target: hCD37-LEL (Large Extracellular Loop; amino acids 107 to 242 of human CD37 with a 6xHis-tag) (human); experiment: as above; remark: listed apart in the source
[5] = molecular target: hCD37-LEL (Large Extracellular Loop; amino acids 107 to 242 of human CD37 with a 6xHis-tag) (human); experiment: ELISA, native hCD37-LEL coated on the plate, antibody at 2.5 µg/mL
[6] = molecular target: hCD37-LEL (Large Extracellular Loop; amino acids 107 to 242 of human CD37 with a 6xHis-tag) (human); experiment: as above; remark: listed apart in the source
[7] = molecular target: hCD37-LEL (Large Extracellular Loop; amino acids 107 to 242 of human CD37 with a 6xHis-tag) (human); experiment: ELISA, denatured hCD37-LEL coated on the plate, antibody at 5 µg/mL
[8] = molecular target: hCD37-ECD-Fc (amino acids 107 to 235 of human CD37 fused to murine IgG2a Fc-domain) (human); experiment: ELISA, native hCD37-ECD-Fc coated on the plate, antibody at 5 µg/mL
[9] = molecular target: hCD37-LEL (Large Extracellular Loop; amino acids 107 to 242 of human CD37 with a 6xHis-tag) (human); experiment: ELISA, denatured hCD37-LEL coated on the plate, antibody at 10 µg/mL
[10] = molecular target: hCD37-ECD-Fc (amino acids 107 to 235 of human CD37 fused to murine IgG2a Fc-domain) (human); experiment: ELISA, native hCD37-ECD-Fc coated on the plate, antibody at 10 µg/mL
[11] = molecular target: hCD37-Fc-LAGA (amino acids 107 to 235 of human CD37 fused to human IgG1 Fc-domain) (human); experiment: ELISA, native hCD37-Fc-LAGA coated on the plate, antibody at 5 µg/mL
[12] = molecular target: hCD37-Fc-LAGA (amino acids 107 to 235 of human CD37 fused to human IgG1 Fc-domain) (human); experiment: as above; remark: listed apart in the source
[13] = molecular target: hCD37-LEL (Large Extracellular Loop; amino acids 107 to 242 of human CD37 with a 6xHis-tag) (human); experiment: ELISA, denatured hCD37-LEL coated on the plate, antibody at 2.5 µg/mL
[14] = molecular target: hCD37-ECD-Fc (amino acids 107 to 235 of human CD37 fused to murine IgG2a Fc-domain) (human); experiment: ELISA, native hCD37-ECD-Fc coated on the plate, antibody at 2.5 µg/mL
[15] = molecular target: hCD37-Fc-LAGA (amino acids 107 to 235 of human CD37 fused to human IgG1 Fc-domain) (human); experiment: ELISA, native hCD37-Fc-LAGA coated on the plate, antibody at 10 µg/mL
[16] = molecular target: hCD37-Fc-LAGA (amino acids 107 to 235 of human CD37 fused to human IgG1 Fc-domain) (human); experiment: as above; remark: listed apart in the source
[17] = molecular target: hCD37-ECD-Fc (amino acids 107 to 235 of human CD37 fused to murine IgG2a Fc-domain) (human); experiment: ELISA, denatured hCD37-ECD-Fc coated on the plate, antibody at 5 µg/mL
[18] = molecular target: hCD37-Fc-LAGA (amino acids 107 to 235 of human CD37 fused to human IgG1 Fc-domain) (human); experiment: ELISA, native hCD37-Fc-LAGA coated on the plate, antibody at 2.5 µg/mL
[19] = molecular target: hCD37-Fc-LAGA (amino acids 107 to 235 of human CD37 fused to human IgG1 Fc-domain) (human); experiment: as above; remark: listed apart in the source
[20] = molecular target: hCD37-ECD-Fc (amino acids 107 to 235 of human CD37 fused to murine IgG2a Fc-domain) (human); experiment: ELISA, denatured hCD37-ECD-Fc coated on the plate, antibody at 10 µg/mL
[21] = molecular target: hCD37-Fc-LAGA (amino acids 107 to 235 of human CD37 fused to human IgG1 Fc-domain) (human); experiment: ELISA, denatured hCD37-Fc-LAGA coated on the plate, antibody at 5 µg/mL
[22] = molecular target: hCD37-ECD-Fc (amino acids 107 to 235 of human CD37 fused to murine IgG2a Fc-domain) (human); experiment: ELISA, denatured hCD37-ECD-Fc coated on the plate, antibody at 2.5 µg/mL
[23] = molecular target: hCD37-Fc-LAGA (amino acids 107 to 235 of human CD37 fused to human IgG1 Fc-domain) (human); experiment: ELISA, denatured hCD37-Fc-LAGA coated on the plate, antibody at 10 µg/mL
[24] = molecular target: hCD37-Fc-LAGA (amino acids 107 to 235 of human CD37 fused to human IgG1 Fc-domain) (human); experiment: ELISA, denatured hCD37-Fc-LAGA coated on the plate, antibody at 2.5 µg/mL
[25] = molecular target: hCD37-LEL (Large Extracellular Loop; amino acids 107 to 242 of human CD37 with a 6xHis-tag) (human); experiment: ELISA, denatured hCD37-LEL coated on the plate, purified antibody titrated
[26] = molecular target: hCD37-LEL (Large Extracellular Loop; amino acids 107 to 242 of human CD37 with a 6xHis-tag) (human); experiment: ELISA, denatured-reduced hCD37-LEL coated on the plate, antibody at 5 µg/mL
[27] = molecular target: hCD37-LEL (Large Extracellular Loop; amino acids 107 to 242 of human CD37 with a 6xHis-tag) (human); experiment: ELISA, denatured-reduced hCD37-LEL coated on the plate, antibody at 10 µg/mL
[28] = molecular target: hCD37-LEL (Large Extracellular Loop; amino acids 107 to 242 of human CD37 with a 6xHis-tag) (human); experiment: ELISA, denatured-reduced hCD37-LEL coated on the plate, antibody at 2.5 µg/mL
[29] = molecular target: hCD37-Fc-LAGA (amino acids 107 to 235 of human CD37 fused to human IgG1 Fc-domain) (human); experiment: ELISA, denatured-reduced hCD37-Fc-LAGA coated on the plate, antibody at 5 µg/mL
[30] = molecular target: hCD37-Fc-LAGA (amino acids 107 to 235 of human CD37 fused to human IgG1 Fc-domain) (human); experiment: ELISA, denatured-reduced hCD37-Fc-LAGA coated on the plate, antibody at 10 µg/mL
[31] = molecular target: hCD37-Fc-LAGA (amino acids 107 to 235 of human CD37 fused to human IgG1 Fc-domain) (human); experiment: ELISA, denatured-reduced hCD37-Fc-LAGA coated on the plate, antibody at 2.5 µg/mL
[32] = molecular target: hCD37-Fc-LAGA (amino acids 107 to 235 of human CD37 fused to human IgG1 Fc-domain) (human); experiment: ELISA, native hCD37-Fc-LAGA coated on the plate, purified antibody titrated (left panel)

Chain of hCD37-LEL (Large Extracellular Loop; amino acids 107 to 242 of human CD37 with a 6xHis-tag) (human) (chain, as listed by the source limits assumed): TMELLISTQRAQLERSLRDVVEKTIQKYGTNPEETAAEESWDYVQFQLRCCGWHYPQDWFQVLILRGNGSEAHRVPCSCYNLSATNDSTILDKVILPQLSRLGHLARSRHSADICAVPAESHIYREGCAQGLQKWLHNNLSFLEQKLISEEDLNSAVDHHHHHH
Chain of hCD37-ECD-Fc (amino acids 107 to 235 of human CD37 fused to murine IgG2a Fc-domain) (human) (chain, as listed by the source limits assumed): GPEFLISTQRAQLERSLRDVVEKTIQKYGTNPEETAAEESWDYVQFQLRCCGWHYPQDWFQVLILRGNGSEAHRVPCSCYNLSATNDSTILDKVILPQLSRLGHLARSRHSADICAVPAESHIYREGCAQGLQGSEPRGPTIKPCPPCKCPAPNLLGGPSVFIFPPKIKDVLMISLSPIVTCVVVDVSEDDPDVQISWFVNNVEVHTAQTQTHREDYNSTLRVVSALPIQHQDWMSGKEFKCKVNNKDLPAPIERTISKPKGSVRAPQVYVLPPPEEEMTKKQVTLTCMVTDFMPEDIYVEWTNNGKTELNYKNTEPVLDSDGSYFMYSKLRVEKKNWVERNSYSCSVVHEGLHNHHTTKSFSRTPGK
Chain of hCD37-Fc-LAGA (amino acids 107 to 235 of human CD37 fused to human IgG1 Fc-domain) (human) (chain, as listed by the source limits assumed): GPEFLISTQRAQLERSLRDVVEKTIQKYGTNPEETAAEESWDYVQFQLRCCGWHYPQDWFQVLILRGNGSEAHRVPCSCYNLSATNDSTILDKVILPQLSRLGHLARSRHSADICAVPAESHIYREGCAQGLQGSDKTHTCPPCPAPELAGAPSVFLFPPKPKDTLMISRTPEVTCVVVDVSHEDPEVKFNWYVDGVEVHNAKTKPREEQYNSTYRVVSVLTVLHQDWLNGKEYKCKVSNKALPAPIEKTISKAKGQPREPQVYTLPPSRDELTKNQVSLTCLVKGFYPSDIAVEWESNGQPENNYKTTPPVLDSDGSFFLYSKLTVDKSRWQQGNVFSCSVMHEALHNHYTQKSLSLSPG

ELISA absorbance at 450 nm [1]: 3
ELISA absorbance at 450 nm [2]: 2.4
ELISA absorbance at 450 nm [3]: 3
ELISA absorbance at 450 nm [4]: 2.7
ELISA absorbance at 450 nm [5]: 3
ELISA absorbance at 450 nm [6]: 2
ELISA absorbance at 450 nm [7]: 2
ELISA absorbance at 450 nm [8]: 2.4
ELISA absorbance at 450 nm [9]: 2.8
ELISA absorbance at 450 nm [10]: 2.7
ELISA absorbance at 450 nm [11]: 2.6
ELISA absorbance at 450 nm [12]: 2.5
ELISA absorbance at 450 nm [13]: 1.8
ELISA absorbance at 450 nm [14]: 2.2
ELISA absorbance at 450 nm [15]: 2.8
ELISA absorbance at 450 nm [16]: 2.9
ELISA absorbance at 450 nm [17]: 3.1
ELISA absorbance at 450 nm [18]: 2.4
ELISA absorbance at 450 nm [19]: 2.1
ELISA absorbance at 450 nm [20]: 3.1
ELISA absorbance at 450 nm [21]: 3.1
ELISA absorbance at 450 nm [22]: 3.1
ELISA absorbance at 450 nm [23]: 3.2
ELISA absorbance at 450 nm [24]: 3.1
EC50 (read off the curve) [25]: 0.1 nM
ELISA absorbance at 450 nm [26]: 3.2
ELISA absorbance at 450 nm [27]: 3.3
ELISA absorbance at 450 nm [28]: 3.2
ELISA absorbance at 450 nm [29]: 3.2
ELISA absorbance at 450 nm [30]: 3.3
ELISA absorbance at 450 nm [31]: 3.2
EC50 (read off the curve) [32]: 3 nM
Substance: NCL-CD37 mouse monoclonal anti-CD37 antibody (clone CT1, Leica Biosystems)
